Reference: US20220242962A1

Key:
[1] = target: Full-length Human OX40 (human) (UniProt P43489); test: flow cytometry (GUAVA Easycyte), antibody at 1:30 dilution, CHO clone OXF001a_6B1 expressing human OX40
[2] = target: Full-length Human OX40 (human) (UniProt P43489); test: flow cytometry (GUAVA Easycyte), antibody at 1:30 dilution, CHO clone OXF001a_9G10 expressing human OX40
[3] = target: Full-length Cyno OX40 (cynomolgus monkey); test: flow cytometry (GUAVA Easycyte), antibody at 1:30 dilution, CHO clone OXF004a_11H7 expressing cynomolgus OX40
Sequence of Full-length Cyno OX40 (cynomolgus monkey) (P43489 other isoform, or with tags, fused parts or gaps): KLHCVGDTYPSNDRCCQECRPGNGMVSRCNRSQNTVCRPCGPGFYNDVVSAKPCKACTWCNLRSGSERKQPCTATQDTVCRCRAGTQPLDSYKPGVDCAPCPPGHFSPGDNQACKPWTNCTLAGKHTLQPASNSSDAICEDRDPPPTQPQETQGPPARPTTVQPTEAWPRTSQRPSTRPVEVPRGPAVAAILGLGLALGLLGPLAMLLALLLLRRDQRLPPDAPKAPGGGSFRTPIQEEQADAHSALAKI

Sequence of Full-length Human OX40 (human) (P43489 29-277): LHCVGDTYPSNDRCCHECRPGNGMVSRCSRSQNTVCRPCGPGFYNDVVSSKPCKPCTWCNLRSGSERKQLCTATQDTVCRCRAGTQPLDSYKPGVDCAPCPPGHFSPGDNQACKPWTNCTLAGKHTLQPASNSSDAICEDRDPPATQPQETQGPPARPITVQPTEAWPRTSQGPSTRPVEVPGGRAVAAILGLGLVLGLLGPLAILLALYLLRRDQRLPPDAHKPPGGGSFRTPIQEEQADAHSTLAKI

For “antibody to human OX40 (clone L106, BD Biosciences)”, the MFI [1] was 211, the MFI [2] was 230 and the MFI [3] was 456.
